In US20240101645A1 (HENRY M JACKSON FOUNDATION FOR THE ADVANCEMENT OF MILITARY …, published 2024):

Target: T1, MERS-CoV spike antigens (bead panel) (MERS-CoV, UniProt K9N5Q8 18-1296)
T1 sequence: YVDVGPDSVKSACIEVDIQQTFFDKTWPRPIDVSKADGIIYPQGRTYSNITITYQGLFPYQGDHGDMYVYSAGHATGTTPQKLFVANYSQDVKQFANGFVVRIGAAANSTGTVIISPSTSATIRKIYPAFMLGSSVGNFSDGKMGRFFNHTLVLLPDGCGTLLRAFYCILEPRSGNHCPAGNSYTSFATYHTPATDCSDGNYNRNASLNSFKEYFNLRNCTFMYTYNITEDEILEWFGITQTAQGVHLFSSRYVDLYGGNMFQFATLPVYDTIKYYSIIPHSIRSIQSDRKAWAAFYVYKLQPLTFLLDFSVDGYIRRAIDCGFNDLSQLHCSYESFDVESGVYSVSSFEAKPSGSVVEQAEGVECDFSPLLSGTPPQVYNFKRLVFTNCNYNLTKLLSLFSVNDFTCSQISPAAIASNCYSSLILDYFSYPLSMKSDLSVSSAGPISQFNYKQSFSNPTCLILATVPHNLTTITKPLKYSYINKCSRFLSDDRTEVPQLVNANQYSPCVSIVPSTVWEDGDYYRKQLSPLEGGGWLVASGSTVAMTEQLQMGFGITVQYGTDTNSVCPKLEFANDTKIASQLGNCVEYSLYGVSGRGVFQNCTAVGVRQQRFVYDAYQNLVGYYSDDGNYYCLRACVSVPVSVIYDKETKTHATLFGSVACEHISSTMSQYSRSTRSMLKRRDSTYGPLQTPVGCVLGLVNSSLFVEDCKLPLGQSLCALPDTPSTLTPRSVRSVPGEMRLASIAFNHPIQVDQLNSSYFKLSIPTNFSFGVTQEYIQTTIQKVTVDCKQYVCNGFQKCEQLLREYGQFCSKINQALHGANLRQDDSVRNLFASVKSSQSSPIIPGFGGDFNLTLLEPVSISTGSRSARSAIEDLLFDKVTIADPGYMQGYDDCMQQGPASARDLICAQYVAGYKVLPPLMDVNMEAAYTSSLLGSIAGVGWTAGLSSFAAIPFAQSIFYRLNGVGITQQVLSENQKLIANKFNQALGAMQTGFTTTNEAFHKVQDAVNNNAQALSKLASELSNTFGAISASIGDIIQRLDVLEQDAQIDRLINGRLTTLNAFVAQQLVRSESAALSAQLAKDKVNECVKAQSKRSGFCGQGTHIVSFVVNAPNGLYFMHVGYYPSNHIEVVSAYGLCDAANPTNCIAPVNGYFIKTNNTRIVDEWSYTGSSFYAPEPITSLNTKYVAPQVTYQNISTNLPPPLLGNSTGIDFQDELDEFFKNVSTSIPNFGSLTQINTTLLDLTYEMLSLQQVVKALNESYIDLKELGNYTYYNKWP
Assay: multiplex bead assay

B1: COV_2143 (antibody, V domains shown)
VH: EVQLVESGGGVVQPGRSLRLSCAASGFTFNSFAMLWVRQAPGKGLEWVALFSYDGSNKYYADSVKGRFTISRDNSKNTLYLQMNNLRAVDTAVYYCARASPYDINGYYLHRIAFDIWGQGTMVTVSS
VL: QSVLMQPPSVSGAPGQRVTISCTGSSSNIGAGYDVHWYQQLPGTAPKLLMYGNSNRPSGVPDRFSGSKSGTSASLAITGLQAEDEADYYCQSYDSGLSGWVFGGGTKLTVLG
notes: human IgG1
binding result: no binding

B2: COV_1172 (antibody, V domains shown)
VH: QVQLQESGPGLVKPSETLSLTCTVSGGSIRSYYWSWIRQPPGKGLEWIGYIYYSGSTNYSPSLKSRVTISVDTSKNQFSLKLNSVTAADTAVYYCARRGLGYCSGDSCSNAFDIWGQGTMVTVSS
VL: DIQMTQSPSSLSASVGDRVTITCRASQSISSYLNWYQQKPGRAPELLIYDASSLQSGVPSGFSGSGSGTDFTLTISSLQPEDFATYYCQQSYSTPFTFGPGTKVDIKR
notes: human IgG1
binding result: no binding

B3: COV_1050 (antibody, V domains shown)
VH: QVQLVESGGGVVQPGRSLRLSCAASRFTFSSYAMHWVRQAPGKGLEWVAVISFDGSNKYYADSVKGRFTIFRDNSKNTLSLQMNSLRTEDTAMYYCASPAGYYESLWGQGTLVTVSS
VL: SYELTQPPSVSVSPGQTARVTCSGDALSKQYGFWYQQKPGQAPTLVIYKDTERPSGIPERFSGSGSGTTVTLTISGVQAEDEADYYCQSTDNSGRWVFGGGTKLTVLG
notes: human IgG1
binding result: no binding

B4: COV_2172 (SEQ ID NO:872/877) (antibody, V domains shown)
VH: EVQLVESGGGVVQPGRSLRLSCAPSGFTFSTYAMHWVRQAPGKGLEWVAVISYDGSIKYYADSVKGRFTISRDNTMNTVFLQMNSLRAEDTAVYFCAKGGERWELFTSFDYWGQGTQVTVSS
VL: QSALTQPRSVSGSPGQSVTISCTGTSSDVGGYNYVSWYQQHPGKAPKLMIYDVSKRPSGVPDRFSGSKSGNTASLTISGLQAEDEADYYCCSYAGSYTFVFGGGTKLTVLG
binding result: no binding

B5: COV_2014 (antibody, V domains shown)
VH: QVQLVQSGAEVKKPGASVKVSCKVSGYTLTELSMHWVRQAPGKGLEWMGGFDPEDGETIYAQKFQGRVTMTEDTSTDTAYMELSSLRSEDTAVYYCATGKINYYDSSGYYGTFDYWGQGTLVTVSS
VL: AIQLTQSPSSLSASVGDRVTITCRASQGISSYLAWYQQKPGKAPKLLIYAASTLQSGVPSRFSGSGSGTDFTLTISSLQPEDFATYYCQQLNSYHLTFGQGTRLEIK
notes: human IgG1
binding result: no binding

B6: COV_2048 (antibody, V domains shown)
VH: QVQLQESGPGLVKPSETLSLTCTVSGGSISNTSYYWGWIRQPPGKGLEWIGSIYRSGSTYYNPSLKSRVTISIDTSKNQFTLKLSSVTAADTAVYYCARDYYGDYSAKPMEYWGQGTLVTVSS
VL: QSALTQPRSVSGSPGQSVTISCTGTSSDVGGYNYVSWYQQHPGKAPKLLIYDVSKRPSGVPDRFSGSKSGNTASLTISGLQAEDEADYYCCSYAGSYVVFGGGAKLTVLG
notes: human IgG1
binding result: no binding

B7: COV_3077 (antibody, V domains shown)
VH: QVQLQESGPGLVKPSETLSLTCAVSGYSISSGYYWGWIRQPPGKGLEWIGSIYHSGSTYYNPSLKSRVTISVDTSKNQFSLKLSSVTAADTAVYYCARALYDAFDIWGQGTMVTVSS
VL: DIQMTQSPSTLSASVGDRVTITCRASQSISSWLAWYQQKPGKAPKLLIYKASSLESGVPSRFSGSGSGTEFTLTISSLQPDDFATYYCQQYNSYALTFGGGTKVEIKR
notes: human IgG1
binding result: no binding

B8: COV_2077 (antibody, V domains shown)
VH: QVQLQESGPGLVKPSETLSLTCTVSGGSISSYSWSWIRQPPGKGLEWIGYIYYSGSTNYNPSLKSRVTISVDTSKNQFSLKLSSVTAADTAVYYCARESMGRYSLELRQPESAFDYWGRGTLVTVSS
VL: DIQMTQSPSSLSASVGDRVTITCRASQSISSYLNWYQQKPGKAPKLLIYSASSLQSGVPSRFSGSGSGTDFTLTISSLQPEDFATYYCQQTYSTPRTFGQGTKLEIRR
notes: human IgG1
binding result: no binding

B9: COV_1170 (antibody, V domains shown)
VH: QVQLVESGGGVVQPGRSLRLSCAASGFTFSTYAMHWVRQAPGKGLEWVALISYDGSNKYYADSVKGRFTISRDNSKNTLDLQMNSLRAEDTAVYYCARSLGGYRTGFDYWGQGTLVTVSS
VL: DIQLTQSPSFLSASVGDRVTITCRASQGISSYLAWYQQKPGKAPKLLIYAASTLQSGVPSRFSGSGSGTEFTLTISSLQPEDFATYYCQQLNSYPPFTFGPGTKVDIKR
notes: human IgG1
binding result: no binding

B10: COV_1201 (antibody, V domains shown)
VH: QVQLVQSGAEVKKPGASMKVSCKASGYTFTGYYIHWVRQAPGQGLEWMGRINPNSGGTNYAQKFQGRVTMTRDTSISTAYMELSRLRSDDTAVYYCAREYYYVPYGMDVWGQGTTVTVSS
VL: QSALTQPASVSGSPGQSITISCTGTSSDVGGYNFVSWYQHHPGKAPKLMIYEVSNRPSGVSNRFSGSKSGNTASLTISGLQAEDEADYYCSSYTSSSTYVFGTGTKVTVL
notes: human IgG1
binding result: no binding

B11: COV_3088 (antibody, V domains shown)
VH: EVQLVESGGGLVQPGGSLRLSCAASGFTFSSYDMHWVRQATGKGLEWVSAIGTAGDTYYPGSVKGRFTISRENAKNSLYLQMNSLRAGDTAVYYCARGSGWPPFFDYWGQGTLVTVSS
VL: SYELTQPPSVSVAPGKTARITCGGNNIGSKSVHWYQQKPGQAPVLVIYYDSDRPSGIPERFSGSNSGNTATLTISRVEAGDEADYYCQVWDSSSDHHWVFGGGTKLTVL
notes: human IgG1
binding result: no binding

B12: COV_1149 (antibody, V domains shown)
VH: QVQLVESGGGVVQPGRSLRLSCAASGFTFSSYGMHWVRQAPGKGLEWVAVISYDGSNKYYADSVKGRFTISRDNSKNTLYLQMNSLRAEDTAVYYCAKTGGGYSYGLGNVWGQGTLVTVSS
VL: QSALTQPASVSGSPGQSITISCTGTSSDVGGYNYVSWYQQHPGKAPKLMIYDVSNRPSGVSNRFSGSKSGNTASLTISGLQAEDEADYYCSSYTSSSTLVVFGGGTKLTVLG
notes: human IgG1
binding result: no binding

B13: COV_1151 (antibody, V domains shown)
VH: QVQVQQWGAGLLKPSETLSLTCAVYGGSFNNYYWSWIRQPPGKGLEWIGEINHSGSTNYNPSLMSRVTISVDTSKNQFSLKLTSVTAADTAVYFCARGLPVTTFFSSYYGMDVWGQGTTVTVSS
VL: EIVLTQSPGTLSLSPGERATLSCRASQSVSRTYLAWYQQKPGQAPRLLIYGASSRATGIPDRFSGSGSGTDFTLTISRLEPEDFAVYYCQHYGSSPWTFGQGTKVEIRR
notes: human IgG1
binding result: no binding

B14: COV_2056 (SEQ ID NO:792/797) (antibody, V domains shown)
VH: EVQLVESGGGVVQPGRSLRLSCAASGFTFSIYGMHWVRQAPGKGLEWVALISYDGTNKYYADSVKGRFSISRDDSKNTLYLQMNSLRPEDTAVYYCAKVLMMGDSSGFSLGDAFDIWGQGTMVTVSS
VL: DIQMTQSPSSVSASVGDRVTITCRASQGISNWLAWYQQKPGKAPKLLIYAASSLQSGVPSRFSGSVSGTDFTLTISSLQPEDFATYYCQQANSFPLTFGGGTKVDIKR
binding result: no binding

B15: COV_2174 (antibody, V domains shown)
VH: EVQLAESGGGLVKPGGSLRLSCAASGFTFSDYYMSWIRQAPGKGLEWVSYISSSGSTIYYADSVKGRFTISRDNAKNSLYLQMNSLRAEDTAVYYCARDWSVVVVPAAPAVDVWGQGTTVTVSS
VL: DIQMTQSPSSLSASVGDRVTITCRASQGISNYLAWFQQKPGKAPKSLIYAASSLQSGVPSKFSGSGSGTDFTLTISSLQPEDFATYYCQQYNSYPLTFGGGTKVEIKR
notes: human IgG1
binding result: no binding

B16: COV_1166 (antibody, V domains shown)
VH: EVQLVESGGGLVQPGGSLRLSCAVSGFTFRSFWMSWVRQTPGKGLEWVANIKEDGSEKYYVDSVKGRFTISRDNAKNSLYLQMNSLRAEDTAVYYCAREGRWELLGFAFDIWGQGTMVTVSS
VL: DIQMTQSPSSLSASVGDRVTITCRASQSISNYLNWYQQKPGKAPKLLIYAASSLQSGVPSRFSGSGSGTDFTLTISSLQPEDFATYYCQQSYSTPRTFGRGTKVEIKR
notes: human IgG1
binding result: no binding

B17: COV_2093 (antibody, V domains shown)
VH: EVQLVESGGGLVQPGGSLRLSCAASGFMFNRFWMSWVRQAPGKGLEWVTNIKQDGSEKNYVDSVKGRFTISRDNAKNSLYLQMNSLRAEDTAVYYCARDGLYYDFRSPSPFYGMDVWGQGTTVTVSS
VL: DIQMTQSPSSLSASVGDRVTITCRASQSISSYLNWYQHKSGKAPKLLIYAASRLQSGVPSRFSGSGSGTDFTLTIVSLQPEDLATYYCQQSYSTPRTFGGGTKVEIKR
notes: human IgG1
binding result: no binding

B18: COV_1144 (antibody, V domains shown)
VH: EVQLVESGGGLVQPGGSLRLSCAASGFTFRSFWMSWVRQAPGKGLEWVANIKEDASEKHYVDPVKGRFTISRDNAKNSLYLQLNSLRAEDMAVYYCARVGRGYCTNGLCYTAFEYWGQGTLVTVSS
VL: DIQMTQSPSSLSASVGDRVTITCRTSQSISNYLNWYQQKPGKAPKLLIYAASSLQSGVPSRFSGSGSGTDFTLTISSLQPEDFATYYCQQSYSTAWTFGQGTKVEIRR
notes: human IgG1
binding result: no binding
